# Measurements: the supplement of paper PMC10567573
# B1: HDAC6 (parent)
# chain: DLMETTQYMNEGELRVLADTYDSV
# Variants of: B1
# Assay: protein stability index of a GFP-peptide fusion (GPS, HEK-293T) (PSI 1-6); higher = more stable
# Details: c terminus: a fixed tail appended
# 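Also: lentivirally expressed fusions sorted by FACS into six bins by GFP to DsRed ratio, PSI derived from sequencing read proportions per bin multiplied by bin number.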
row,Variant,protein stability index
1,DLMETSQYMNEGELRVLADTYDSV [T6S],1.56
2,DLMETVQYMNEGELRVLADTYDSV [T6V],1.46
3,DLMETCQYMNEGELRVLADTYDSV [T6C],2.5
4,DLMETKQYMNEGELRVLADTYDSV [T6K],1.02
5,DLMETHQYMNEGELRVLADTYDSV [T6H],2.29
6,DLMETQQYMNEGELRVLADTYDSV [T6Q],1.94
7,DLMETNQYMNEGELRVLADTYDSV [T6N],2.42
8,DLMETWQYMNEGELRVLADTYDSV [T6W],1.73
9,DLMETYQYMNEGELRVLADTYDSV [T6Y],1.66
10,DLMETEQYMNEGELRVLADTYDSV [T6E],2.88
11,DLMETTQYMNFGELRVLADTYDSV [E11F],2
12,DLMETTQYMNNGELRVLADTYDSV [E11N],3.13
13,DLMETTQYMNKGELRVLADTYDSV [E11K],2.89
14,DLMETTQYMNGGELRVLADTYDSV [E11G],3.58
15,DLMETTQYMNRGELRVLADTYDSV [E11R],3.19
16,DLMETTQYMNLGELRVLADTYDSV [E11L],2.6
17,DLMETTQYMNQGELRVLADTYDSV [E11Q],2.6
18,DLMETTQYMNIGELRVLADTYDSV [E11I],1.86
19,DLMETTQYMNWGELRVLADTYDSV [E11W],1.89
20,DLMETTQYMNSGELRVLADTYDSV [E11S],2.95
21,DLMETTQYMNTGELRVLADTYDSV [E11T],2.9
22,DLMETTQYMNVGELRVLADTYDSV [E11V],2.45
23,DLMETTQYMNYGELRVLADTYDSV [E11Y],2.43
24,DLMETTQYMNMGELRVLADTYDSV [E11M],3.15

row,Variant,protein stability index
1,DLMETTQYMNAGELRVLADTYDSV [E11A],2.15
2,DLMETTQYMNCGELRVLADTYDSV [E11C],2.47
3,DLMETTQYMNPGELRVLADTYDSV [E11P],3.65
4,DLMETTQYMNDGELRVLADTYDSV [E11D],1.69
5,DLMETTQYMNHGELRVLADTYDSV [E11H],2.78
6,DLMETTQYMNEGELRCLADTYDSV [V16C],2.72
7,DLMETTQYMNEGELRALADTYDSV [V16A],3.72
8,DLMETTQYMNEGELRMLADTYDSV [V16M],3.99
9,DLMETTQYMNEGELRNLADTYDSV [V16N],4.06
10,DLMETTQYMNEGELRILADTYDSV [V16I],2.1
11,DLMETTQYMNEGELRGLADTYDSV [V16G],4.03
12,DLMETTQYMNEGELRKLADTYDSV [V16K],3.91
13,DLMETTQYMNEGELRELADTYDSV [V16E],4.75
14,DLMETTQYMNEGELRHLADTYDSV [V16H],4.62
15,DLMETTQYMNEGELRFLADTYDSV [V16F],3.61
16,DLMETTQYMNEGELRLLADTYDSV [V16L],3.27
17,DLMETTQYMNEGELRDLADTYDSV [V16D],4.54
18,DLMETTQYCNEGELRVLADTYDSV [M9C],4.25
19,DLMETTQYPNEGELRVLADTYDSV [M9P],4.55
20,DLMETTQYGNEGELRVLADTYDSV [M9G],4.71
21,DLMETTQYHNEGELRVLADTYDSV [M9H],4.55
22,DLMETTQYWNEGELRVLADTYDSV [M9W],3.37
23,DLMETTQYTNEGELRVLADTYDSV [M9T],4.82
24,DLMETTQYLNEGELRVLADTYDSV [M9L],3.84

row,Variant,protein stability index
1,DLMETTQYANEGELRVLADTYDSV [M9A],4.57
2,DLMETTQYKNEGELRVLADTYDSV [M9K],4.24
3,DLMETTQYFNEGELRVLADTYDSV [M9F],3.44
4,DLMETTQYVNEGELRVLADTYDSV [M9V],3.6
5,DLMETTQYDNEGELRVLADTYDSV [M9D],4.95
6,DLMETTQYYNEGELRVLADTYDSV [M9Y],4.31
7,DLMETTQYENEGELRVLADTYDSV [M9E],4.61
8,DLMETTQYSNEGELRVLADTYDSV [M9S],4.68
9,DLMETTQYNNEGELRVLADTYDSV [M9N],4.12
10,DLMETTQYRNEGELRVLADTYDSV [M9R],4.28
11,DLMETTQYQNEGELRVLADTYDSV [M9Q],4.92
12,DLMETTQYINEGELRVLADTYDSV [M9I],4.14
13,DLMEYTQYMNEGELRVLADTYDSV [T5Y],1.38
14,DLMETTQYMNEGELMVLADTYDSV [R15M],1.89
15,DLMETTQYMNEGELAVLADTYDSV [R15A],1.77
16,DLMETTQYMNEGELIVLADTYDSV [R15I],2.2
17,DLMETTQYMNEGELVVLADTYDSV [R15V],2.37
18,DLMETTQYMNEGELNVLADTYDSV [R15N],2.67
19,DLMETTQYMNEGELQVLADTYDSV [R15Q],1.76
20,DLMETTQYMNEGELEVLADTYDSV [R15E],2.01
21,DLMETTQYMNEGELDVLADTYDSV [R15D],3.8
22,DLMETTQYMNEGELKVLADTYDSV [R15K],2.27
23,DLMETTQYMNEGELLVLADTYDSV [R15L],1.5
24,DLMETTQYMNEGELHVLADTYDSV [R15H],2.03

row,Variant,protein stability index
1,DLMETTQYMNEGELCVLADTYDSV [R15C],1.5
2,DLMETTQYMNEGELFVLADTYDSV [R15F],2.64
3,DLMETTQYMNEGELPVLADTYDSV [R15P],4.61
4,DLMETTQYMNEGELYVLADTYDSV [R15Y],2.39
5,DLMETTQYMNEGELSVLADTYDSV [R15S],2.09
6,DLMETTQYMNEGELGVLADTYDSV [R15G],3.24
7,DLMETTQYMNEGELTVLADTYDSV [R15T],2.58
8,DLMETTQYMREGELRVLADTYDSV [N10R],1.75
9,DLMETTQYMPEGELRVLADTYDSV [N10P],4.49
10,DLMETTQYMQEGELRVLADTYDSV [N10Q],2.07
11,DLMETTQYMCEGELRVLADTYDSV [N10C],1.88
12,DLMETTQYMSEGELRVLADTYDSV [N10S],1.74
13,DLMETTQYMGEGELRVLADTYDSV [N10G],3.14
14,DLMETTQYMHEGELRVLADTYDSV [N10H],2.57
15,DLMETTQYMYEGELRVLADTYDSV [N10Y],3.32
16,DLMETTQYMDEGELRVLADTYDSV [N10D],3.95
17,DLMETTQYMMEGELRVLADTYDSV [N10M],4.08
18,DLMETTQYMAEGELRVLADTYDSV [N10A],1.98
19,DLMETTQYMEEGELRVLADTYDSV [N10E],2.91
20,DLMETTQYMVEGELRVLADTYDSV [N10V],1.8
21,DLMETTQYMTEGELRVLADTYDSV [N10T],2.21
22,DLMETTQYMFEGELRVLADTYDSV [N10F],1.05
